According to the nanobody polyreactivity screen of Harvey et al. (2022):

Assay: yeast display, Sf9 membrane polyspecificity reagent, FACS + sequencing; frameworks hold sequencing errors
Summary of the method: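 Sorting gates, low and high (top ~1%), were placed on anti-HA fluorescence to track expression and on streptavidin fluorescence to track reagent binding. A clone's polyreactivity label is taken from the gate it came out of. The reagent was 10% biotinylated, detergent-solubilized Sf9 membrane, applied for 1 hour at 4 °C to galactose-induced yeast display cells.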

Q: With “QVQLVESGGGLVQAGGSLRLSCAASGLICPLNAMGWYRQAPGKERELVAAITYSGGGTYYADSVKGRFTISRDNAKNTVDLQMNSLKAEDTAVYYCAADGSVSYYTYYYWGQGTHVTVSS” as the sequence, how does the “polyreactivity (PSR sort gate)” value read?
A: low polyreactivity

Q: Which “polyreactivity (PSR sort gate)” value does the source give for “QVQLVESGGGLVQAGGSLRLSCAASGSTLWIYAMGWYRQAPGKERELVAAISWSTGRTYYADSVKGRFTISRDNAKNTVYLQMNSLKPVDTAVYYCNAGPQHNTLKLFYYWGQGTQVTVSS” here?
A: low polyreactivity

Q: For “QVQLVESGGGLVQAGGSLRLSCAASGRTFWYYAMGWYRQAPGKERELVAAISRNGGSTYYEDSVKGRFTISRDNAKNTVYLQMNSLKPEDTAVYYCAADGWYTRKYDYWGQGTQVTVSS”, which “polyreactivity (PSR sort gate)” value is on record?
A: high polyreactivity

Q: Which “polyreactivity (PSR sort gate)” value does the source give for “QVQLVVSGGGLDQARGSLRLSCAASGSNFFYYAMGWYRQAPWKERELVAGINWSGGSTYADSVKGRFTISRDNAKNTVYLQMNSLKPEDTAVYYCAAKFYSERSSYHYWGQGTQVTVSS” here?
A: low polyreactivity

Q: Which “polyreactivity (PSR sort gate)” value does the source give for “QVQLVESGGGLVQAGGSLRLSCAASGSIFRIYAMGWYRPAPGKERELVAAISRGGGSTYYADSVKGRFTISRDNAKNTVYLQMNSLKPEDTAVYYCAARSPYRYYYWGQGTQVTVSS” here?
A: high polyreactivity

Q: Which “polyreactivity (PSR sort gate)” value does the source give for “QVQLVESGGGLVQAGGSLRLSCAASGSTFVGNAMGWYRQAPGKERELVAAITWSGGTYYADSVKGRFTISRDNAKNTVYLQMNSLKPEDTAVYYCNAEWRVYPDLYDYWGQGTQVTVSS” here?
A: low polyreactivity

Q: With “QVQLVESGGGLVQAGGSLRLSCAASGRIFERNAMGWYRQAPGKERELVAAITYNGGRTYYADSVKGRFTISRDNAKNTVYLQMNSLKPEDTAVYYCNAQSRVTRSSYRGSPRYDYWGQGTQVTVSS” as the sequence, how does the “polyreactivity (PSR sort gate)” value read?
A: low polyreactivity

Q: For “QVQLGESGGGLVQAGGSLRLSCAASGRTFYGYPMGWYRQAPGKERELVAAISRNGASTFYADSVKGRFTISRDNAKNTVYLQMNSLKPEDTAVYYCNARSWRHTDTSFEYWGQGTQVTVSS”, which “polyreactivity (PSR sort gate)” value is on record?
A: high polyreactivity

Q: With “QVQLVESGGGLVQAGGSLRLSCAASGSTCILNAMGWYRQAPGKERELVATISSSDTSTYYADSVKGRFTISRDNAKNTVYLQMNCLKPEDTAVYYCNADYYTTSYLQGVYHYGVEYDFWGQGTQVTVSS” as the sequence, how does the “polyreactivity (PSR sort gate)” value read?
A: low polyreactivity

Q: Which “polyreactivity (PSR sort gate)” value does the source give for “QVQLVESGGGLVQAGGSLRLSCAASGRTYGYAMGWYTQAPGIERELVARINRTTGSTYYADSVKGRFTISRDNAKNTVYLQMNSLKPQDTAVYYCAKSSYSRALKLYYWGQGSQVTVSS” here?
A: high polyreactivity

Q: For “QVQLVESGGGLVQTGGSLRLSCAASGRIFRYYDMGWYRQAPGKEREFVAAITRSGAITYYADSVKGRFTISRDNAKNTVYLQMNSLKPEDTAVYYCFAVRHYALYAGRPYDYWGQGTQVTVSS”, which “polyreactivity (PSR sort gate)” value is on record?
A: low polyreactivity

Q: For “QVQLVESGGVLVQAGGSLRLRCAASVRNYNSYMGWYRPAPGKERELVAAISWSSGTSTYYADSVKGRFTISRDNAKNTVYLQMNSLKPEDTEVYYCNAVDYFGPYPEEYDYWGQGTQVTVSS”, which “polyreactivity (PSR sort gate)” value is on record?
A: low polyreactivity

Q: For “QVQHVESGGGLVQAGGSLRLSCAASGFIFARNAMGWYRQARGKERELVAVISTRGRTYYADSVKGRFTFSRDNAKNTVYLQMNSLKPEDTAVYYCNADKVIGYDYWGQGTQVTVSS”, which “polyreactivity (PSR sort gate)” value is on record?
A: high polyreactivity

Q: Which “polyreactivity (PSR sort gate)” value does the source give for “QVQHVESGVGLVQAVGSLRLSCAASGLTFKYYAMGWYRQAAVKEWELVARLSRTGGSTNYADSVKGRFTISRDNAKNTLYLQMNSLKPEDTAVSYCNTQFSYSSAPPFWYTKMYYWGQGTQVTVSS” here?
A: high polyreactivity

Q: Which “polyreactivity (PSR sort gate)” value does the source give for “QVQLVESGGGLVQAGGSLRLSCAASGFTFHSYAMGWYRQAPGKERELVAAISYSGGSTYYADSVKGRFTISRDNAKNTVYLQMHSLKPEDTAVYYCAGLRYIYGYANDYWGQGTQVTVSS” here?
A: low polyreactivity

Q: With “QVQLVESVGGLVQAGGSLRLSCAASGRTFGGNAMGWYRQAPGKERELVAVITGSGARTYYADSVKGRFTISRDNAKNTVYLQMNSLKPEDTAVYYCAAAGYSGQYRSYYWGQGTQVTVSS” as the sequence, how does the “polyreactivity (PSR sort gate)” value read?
A: high polyreactivity

Q: With “QVQLVESGGGLVQAGGSLRLSCAASGFTFVRYAMGWYRQAPGKERELVAAISSSGSSTYYADSVKGRFTISRDPVKNTVYLQMNSLIPEDTAVYYFNARAGGGEDYWGQGTQVTVSS” as the sequence, how does the “polyreactivity (PSR sort gate)” value read?
A: low polyreactivity

Q: For “QVQLVESGGCLVQAGGSLRLSCASSGITFPGYAMGWYRQAPGKERELVAVIRKSGTSTYYADSVKGRFTISRDNAKNTVDLQMNSLKPEDTAVYYCAAGGPSTLDDYWGQGTQGTVSS”, which “polyreactivity (PSR sort gate)” value is on record?
A: low polyreactivity

Q: With “QFQLVESGGALVQAGGSLRLSCAASGSTFTGYTMGWYRQAPGKERELVAAINWSGGRTYYADSVKGRFTISRDNAKNTVYLQMNSLKPDDTAVYYCAVRSRSLGGYLGQGTQVTVSS” as the sequence, how does the “polyreactivity (PSR sort gate)” value read?
A: high polyreactivity

Q: With “QVQLVESGGGLVQAGGSLRLRCAAAGSIFKLNAMGWYRQAPGKERELVAVIYKSAGRTYYADSVKGRFTISRDNAKNTVYLQMNSLKTEDTAVYYCNAVSKLAVNLDYWGQGTQVTVSS” as the sequence, how does the “polyreactivity (PSR sort gate)” value read?
A: high polyreactivity

Q: For “QVQHVESGRGLVQAGVSLRLSCAASGIFFGAYAMGWYRQAPGKEREFVAAISRSGGSTYYADSVKGRFTISRDYAKNTVYFQKNSLKPEDSAVYYCNALAKYHYYLGQGTQVTVSS”, which “polyreactivity (PSR sort gate)” value is on record?
A: high polyreactivity

Q: For “QVQLVESGGGLVQAGGSLRLSCAASGSIFAWYAMGWYRQAPGKERELVAAIRFRGGSTYYADSVKGRFTISRDNAKNTVYLQMNSLKPEDTAVYYCAGYYWYRSYYWGQGTQVTVSS”, which “polyreactivity (PSR sort gate)” value is on record?
A: high polyreactivity

Q: With “QVQIVESGGGLVQAGGSLRLSCAASGSTFYGYAMGWYRQAPGKERELVAVINYRGDRTYFADSVKGRFTISRDNAKNTVYLQMNSLKPEDTAVYYCAARYRVYYLAGYEYWGQGTQVTVSS” as the sequence, how does the “polyreactivity (PSR sort gate)” value read?
A: high polyreactivity

Q: Which “polyreactivity (PSR sort gate)” value does the source give for “QVQLVESGGGLVQAGGSLRLSCAASGITILWNVMGWYRQAPGKERELVATITSIGGITNYADSVKGRFTISRDNAKNTVYLQMNSLKPEDTAVYYCARDDRDIRGVSGREGFLYDYWGQGTQVTVSS” here?
A: low polyreactivity

Q: With “QVQLVESGGCLVQAGGSLRLSCAASGFTFHDYAMGWYRQAPGKERELVAAITKSGGRTYYADSVKGRFTISRDNAQNTVYLQMNSLKPVDTAVYYRAAKSYWGQVTQVTVSS” as the sequence, how does the “polyreactivity (PSR sort gate)” value read?
A: high polyreactivity

Q: Which “polyreactivity (PSR sort gate)” value does the source give for “QDQLVESGGGLVQAGGSLRLSCAASGSIIGWYAMGWYRQARGKERELVAAITFSSVSTYYADSVKGRFTISRDNAKNTVYLQMNSLKPEDTAVYYCAAVVYYTFDYCGQGTQVTVSS” here?
A: low polyreactivity

Q: Which “polyreactivity (PSR sort gate)” value does the source give for “QVQLVESGGGLVQAGGSLRLSCAASGNTFFDYDMGWYRQAPGKERELVATITNSGTSTYYTDSVKGRFTISRDNAKNTVYLQMNSLKPEDTAVYYCAADLFYAVLGNEYDYWGQGTQVTVSS” here?
A: high polyreactivity

Q: For “QVQLVESGGGLVQAGGSLRLSCAASGSILGHYAMGWYRQAPGKERELVAAISWSGGSTYYADSVKGRFTISRDNAKNTVYLQMNSLKPEDTAVYYCNAAAILYTSAGSLYWYDYWGQGTQVTVSS”, which “polyreactivity (PSR sort gate)” value is on record?
A: low polyreactivity

Q: Which “polyreactivity (PSR sort gate)” value does the source give for “QVQLVESGGGLVQAGGSLRLSCAASGRNFSSYAMGWYIQAPGKERELVAAITSGGRTKYADSVKGRFTISRDNAKNTVYLQMNSLKPEDTAVYYCAARNHWVRYLRYDYWGQGTQVTVSS” here?
A: high polyreactivity

Q: With “QVQLVESGGGLVQAGGSLRLSCAASGFTFDSYAMGWYRQAPGKERELVASISSSGSTNYADSVKGRFTISRDNAKNTVYLQMNSLKPEDTAVYYCAAESRYPFIYEYWGQGTQVTVSS” as the sequence, how does the “polyreactivity (PSR sort gate)” value read?
A: low polyreactivity

Q: For “QVQLVESGGGLVQAGGSLRLSCAASGRTFQENGMGWYRQAPGKERELVATISQRGTSTYYADSVKGRFTISRDNAKNTVYLQMNSLKPEDTAVEYCARRRVYRWYTGDYWGQGTQVTVSS”, which “polyreactivity (PSR sort gate)” value is on record?
A: low polyreactivity

Q: Which “polyreactivity (PSR sort gate)” value does the source give for “QVQLVESGGGLVQAGGSLRLSCAASGSTFSVNAMGRYRQATGKERELVATISGGITNYADSVKGRFTISRDNAKNTVYLQMNSLKPEDTAVYYCNTAYRHIWVTWAAYDYWGQGTQVTVSS” here?
A: low polyreactivity

Q: For “QVQLVESGGGLVQAGGSLRLSCAASGFTFWGYGMGWYRQAPGKERELVAAISGSGGSTYYADSVKGRFTISRDNAKNTVYLQMNSLKPEDTAVYYCNKATQFYQWGASPYYPRRDYWGQGTQVTVSS”, which “polyreactivity (PSR sort gate)” value is on record?
A: low polyreactivity

Q: Which “polyreactivity (PSR sort gate)” value does the source give for “QVQHVESGGGLVQAGGSLRLSCAASVSTFEYYAIGRYRQAPGKERELVASISSGGSTYYADSVKGRFTISRDNAKNTVYLQMNSLKPEDTAVYYCAADSYYGYEYWGQGTQVTVSS” here?
A: low polyreactivity

Q: With “QFQLVESGGGLVHAVGSLRLSCAASGRTGKNAMGWYRQAPGKERELVAAIRYNGGSTYYADSVKGRFTISRDNAKNSVYLQMNSLKPEDTAVYYCAAAFRRHNGSAFNYWGQGTQVTVSS” as the sequence, how does the “polyreactivity (PSR sort gate)” value read?
A: high polyreactivity

Q: With “QVQLVESGGGLVQAGGSLRLSCAASGITFEIYVMGWYRQAPGKERELVAAITSDDTTYADSVKGRFTISRDNAKNTVYLQMNSLKPEDTAVYYCAADYYGVGVGPYSPADEYDYWGQGTQVTVSS” as the sequence, how does the “polyreactivity (PSR sort gate)” value read?
A: low polyreactivity

Q: For “QVQLVESGGGLVQAGGSLRLSCAASGGIFYSYAMGWYRQAPGKERELVAAISGRGGSTYYADSVKGRFTISRDNAKNTVYLQMNSLKPEDTAVYYCNALGSQRYDYWGQGTQVTVSS”, which “polyreactivity (PSR sort gate)” value is on record?
A: high polyreactivity

Q: For “QVQLVESGGGLVQAGGSLRLSCAASGRILWGNTMGWYRQAPGKERELVAAISWNGGGTYYADSVKGRFTISRDNAKNTVYLQMNSLKPEDTAVYYCATRYTYSTDTGYDYWGQGTQVTVSS”, which “polyreactivity (PSR sort gate)” value is on record?
A: low polyreactivity

Q: For “QVQLLESGGGLVQAGGRHRLSCAASGRTFPGNAMGWYRKAPGKERELVAAISWSVDRTYYADSVKGRFTISRDNAKNTVYLQMNSLKPEDTSVYYCAAVEWWSSSLRMYYWGQGTQETVSS”, which “polyreactivity (PSR sort gate)” value is on record?
A: low polyreactivity

Q: For “QVQLVESGGGLVQAGGSLRLSCAASGRIFYNYAMGWYRQAPGKERELVAAISGSGGSTYYADSVKGRFTISRDNAMNTVYLQMNSLKPEDTAVYYCSTSGPQYYSRNFDYWGQGTQVTVSS”, which “polyreactivity (PSR sort gate)” value is on record?
A: low polyreactivity

Q: Which “polyreactivity (PSR sort gate)” value does the source give for “QVQLVESGGGLVQAGGSLRLSCAASGSMLKSYAMGWYIQAPGKESELVAAITYRDGSTYYADSVKGRFTISRDNAKNTVYLQMNSLKPEDTAVYYCNARWARGRYAQYGGLDREYDYWGQGTQVTVSS” here?
A: high polyreactivity

Q: For “QVQLVESGGGLVQAGGSLRLSCAASGSTFARYAMGWYRQAPGKERELVASITTGGRTYYADSVKGRFTITRDNAKYTVYLQMNSLKPEDTPVYFCNVLRYRGYDYWGQGTQVTVSS”, which “polyreactivity (PSR sort gate)” value is on record?
A: high polyreactivity

Q: With “QVQLEESGGGLVQAGGSLRISCSASGFNFRYYTMGWYRQAPGKERELVAAITSRGGSTYYADSLKGRFTISRDIAKNTVYLQMNSLKPEDTAVYYCATTSWGYEYWGQGTEVTVSS” as the sequence, how does the “polyreactivity (PSR sort gate)” value read?
A: high polyreactivity
